Measured values as given in paper PMC2173804.

B1: FasL (dsDNA)
DNA 1: CTAGAATAAGTAAATAAATAA
DNA 2: CTAGTTATTTATTTACTTATT
B2: bim1 (dsDNA)
DNA 1: CTAGCTAGGGTAAACACGCCG
DNA 2: CTAGCGGCGTGTTTACCCTAG
B3: bim2 (dsDNA)
DNA 1: CTAGGCAAGGTAAACACTCCT
DNA 2: CTAGAGGAGTGTTTACCTTGC
B4: mut1 (dsDNA)
DNA 1: CTAGCTAGGGTACCCACGCCG
DNA 2: CTAGCGGCGTGGGTACCCTAG
B5: mut2 (dsDNA)
DNA 1: CTAGGCAAGGTAAGTTCTCCT
DNA 2: CTAGAGGAGAACTTACCTTGC

The binders below were run against GST-FKH (FKHRL1/FOXO3a DNA-binding domain) (UniProt O43524 141-268, S253A) (assay: EMSA).
GST-FKH (FKHRL1/FOXO3a DNA-binding domain), sequence (O43524 141-268 S253A): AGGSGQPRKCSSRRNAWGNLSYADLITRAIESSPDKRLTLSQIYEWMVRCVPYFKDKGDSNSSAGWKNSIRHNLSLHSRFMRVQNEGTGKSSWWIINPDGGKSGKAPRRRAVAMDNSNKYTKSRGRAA
B1: binds. B2: binds. B3: binds. B4: no binding. B5: no binding.
